# Data as given in patent US20230220589A1.
# B1: SEQ ID NO 22 (designed binder, not shown: small tags and cut ends; large carriers)
# chain: QVSVQPNFQQDKFLGRWFTAGLASNSSWLREKFAALSHAKTVVAPATDGGLNLTVTVLRKNQCETSTLLLQPAGSLGSYSRRSPHVGSTGSVSVVETDYDQYALIYDQGSKGPGEDWRIAELVSRTQTPRAELKEKFTAFSKAQGFTEDTIVFLPQTDKCMTEQ
# B2: SEQ ID NO 39 (designed binder, not shown: small tags and cut ends; large carriers)
# chain: QVSVQPNFQQDKFLGRWFLAGLASNSSWAREKIAALSDAKFVVAPATDGGLNGTVTVLRKNQCETATGLLQPAGSLGSYSWRSPHDGSTLSLSVVETDYDQYALVYEQGSKGPGEDLRIAALWSRTQTPRAELKEKFTAFSKAQGFTEDTIVFLPQTDKCMTEQ
# B3: SEQ ID NO 46 (designed binder, not shown: small tags and cut ends; large carriers)
# chain: TVPDRSEIAGKWYVVALASNTEFHLREKDNLKVAMARISFLGEDELKVSEAVPTPNGCMKHESTWKKTSDDGEVYRSRKAKQKVEVLDTDYKSYAVIYATRVKDGRTHHWMLLYSRSPEVSPAATAIFRKLAGERNYTDEMVAMLPRQEECTVDEV
# B4: SEQ ID NO 25 (designed binder, not shown: small tags and cut ends; large carriers)
# chain: QVSVQPNFQQDKFLGRWFIAGLASNSSWVREKSAALSQAKVVVAPATDGGLNVTVTVLRKNQCETYTVLLQPAGSLGSYSSRSPHFGSTVSLSVVETDYDQYALWYAQGSKGPGEDMRHAELWSRTQTPRAELKEKFTAFSKAQGFTEDTIVFLPQTDKCMTEQ
# B5: SEQ ID NO 24 (designed binder, not shown: small tags and cut ends; large carriers)
# chain: QVSVQPNFQQDKFLGRWFYAGLASNSSWLREKCAALSSAKAVVAPATDGGLNVTETWLRKNQCETGTELLQPAGSLGSYSFRSPHRGSTLSLSVVETDYDQYALLYRQGSKGPGEDERRALLMSRTQTPRAELKEKFTAFSKAQGFTEDTIVFLPQTDKCMTEQ
# B6: SEQ ID NO 38 (designed binder, not shown: small tags and cut ends; large carriers)
# chain: QVSVQPNFQQDKFLGRWFPAGFASNSSWDREKPAALSLAKMVVAPATDGGLNWTETYLRKNQCETTTHLLQPAGSLGSYSYRSPHFGSTRSLSVVETDYDQYALFYSQGSKGPGEDHRGAWLLSRTQTPRAELKEKFTAFSKAQGFTEDTIVFLPQTDKCMTEQ
# B7: SEQ ID NO 26 (designed binder, not shown: small tags and cut ends; large carriers)
# chain: QVSVQPNFQQDKFLGRWFAAGYASNSSWRRERSAALSMAKVVVAPATDGGLNWTETILRKNQCETATNLLQPAGSLGSYSIRSPHAGSTSSMSVVETDYDQYALLYAQGSKGPGEDFRLAILLSRTQTPRAELKEKFTAFSKAQGFTEDTIVFLPQTDKCMTEQ
# B8: SEQ ID NO 29 (designed binder, not shown: small tags and cut ends; large carriers)
# chain: QVSVQPNFQQDKFLGRWFVAGVASNSSWMREKVAALSGAKVVVAPATDGGLNYTETWLRKNQCETWTGLLQPAGSLGSYSQRSPHGGSTNSLSVVETDYDQYALLYVQGSKGPGEDPRVAVLWSRTQTPRAELKEKFTAFSKAQGFTEDTIVFLPQTDKCMTEQ
# B9: SEQ ID NO 28 (designed binder, not shown: small tags and cut ends; large carriers)
# chain: QVSVQPNFQQDKFLGRWFLAGMASNSSWMREKFAALSVAKFVVAPATDGGLNTTTTLLRKNQCETFTRLLQPAGSLGSYSSRSPHLGSTVSGSVVETDYDQYALLYEQGSKGPGEDGRKAWLGSRTQTPRAELKEKFTAFSKAQGFTEDTIVFLPQTDKCMTEQ
# B10: SEQ ID NO 44 (designed binder, not shown: small tags and cut ends; large carriers)
# chain: TVPDRSEIAGKWYVVALASNTEFFLREKDRIKTAMARISFLGEDELKVSLARPAPNGCHKAEWTFKKTSDDGEVYTSFLAKFKVEVLDTDYKSYAVIYATPVKDGRTRHEMLLYSRSPEVSPAATAIFRKLAGERNYTDEMVAMLPRQEECTVDEV
# B11: SEQ ID NO 32 (designed binder, not shown: small tags and cut ends; large carriers)
# chain: QDSTQNLIPAPPLISVPLQPGFWTERFQGRWFSVGMAGNAVQKERQSRFTMGSCIMELQEDNSYNLTFIGVRGQGCRYRILTWVPSSRPGQFTLGNIHSYPQIQSADVQVADTDYDQFAMVFWQTTSENKQYFAVELWGRTKGLSDELKERFVSFAKSLGLKDNNIVFSVPTDQCIDN
# B12: SEQ ID NO 23 (designed binder, not shown: small tags and cut ends; large carriers)
# chain: QVSVQPNFQQDKFLGRWFLAGAASNSSWLREKNAALSYAKLVVAPATDGGLNSTVTRLRKNQCETETRLLQPAGSLGSYSWRSPHLGSTLSLSVVETDYDQYALVYAQGSKGPGEDVRGAELLSRTQTPRAELKEKFTAFSKAQGFTEDTIVFLPQTDKCMTEQ
# B13: SEQ ID NO 30 (designed binder, not shown: small tags and cut ends; large carriers)
# chain: QDSTQNLIPAPPLISVPLQPGFWTERFQGRWFNVGIAGNAVQKERQSRFTMLSLISELQEDNSYNWTLISVRGQGCRYRILTWVPSSRPGQFTLGNIHSYPQIQSLDVQVADTDYDQFAMVFAQGTSENKQYFEVILMGRTKGLSDELKERFVSFAKSLGLKDNNIVFSVPTDQCIDN
# B14: SEQ ID NO 43 (designed binder, not shown: small tags and cut ends; large carriers)
# chain: TVPDRSEIAGKWYVVALASNTEFVLREKDWLKLAMARISFLGEDELKVSMTTPGPNGCTKWERTLKKTSDDGEVYSSPRAKEKVEVLDTDYKSYAVIYATAVKDGRTLHEMWLYSRSPEVSPAATAIFRKLAGERNYTDEMVAMLPRQEECTVDEV
# B15: SEQ ID NO 47 (designed binder, not shown: small tags and cut ends; large carriers)
# chain: TVPDRSEIAGKWYVVALASNTEFFLREKDNFKMAMARISFLGEDELKVSEAVPTPNGCFKAEFTGKKTSDDGEVYWSQTAKYKVEVLDTDYKSYAVIYATNVKDGRTVHAMNLYSRSPEVSPAATAIFRKLAGERNYTDEMVAMLPRQEECTVDEV
# B16: SEQ ID NO 37 (designed binder, not shown: small tags and cut ends; large carriers)
# chain: QDSTQNLIPAPPLISVPLQPGFWTERFQGRWFLVGLAGNAVQKERQSRRTMSSLILELQEDNSYNETWINVRGQGCRYRIGTVVPSSRPGQFTLGNIHSYPQIQSLDVQVADTDYDQFAMVFTQFTSENKQYFYVRLMGRTKGLSDELKERFVSFAKSLGLKDNNIVFSVPTDQCIDN
# B17: SEQ ID NO 41 (designed binder, not shown: small tags and cut ends; large carriers)
# chain: QVSVQPNFQQDKFLGRWFYAGMASNSSWLREKSAALSAAKFVVAPATDGGLNFTETFLRKNQCETTTILLQPAGSLGSYSVRSPHVGSTVSISVVETDYDQYALFYVQGSKGPGEDNRMALLGSRTQTPRAELKEKFTAFSKAQGFTEDTIVFLPQTDKCMTEQ
# B18: SEQ ID NO 40 (designed binder, not shown: small tags and cut ends; large carriers)
# chain: QVSVQPNFQQDKFLGRWFYAGLASNSSWIREKYAALSLAKSVVAPATDGGLNWTETSLRKNQCETGTVLLQPAGSLGSYSLRSPHHGSTISVSVVETDYDQYALVYRQGSKGPGEDSRRAILMSRTQTPRAELTEKFTAFSKAQGFTEDTIVFLPQTDKCMTEQ
# B19: SEQ ID NO 36 (designed binder, not shown: small tags and cut ends; large carriers)
# chain: QDSTQNLIPAPPLISVPLQPGFWTERFQGRWFIVGAAGNAVQKERQSRVTMGSVIWELQEDNSYNLTFISVRGQGCRYWIETWVPSSRPGQFTLGNIHSYPQIQSADVQVADTDYDQFAMVFVQYTSENKQYFMVRLLGRTKGLSDELKERFVSFAKSLGLKDNNIVFSVPTDQCIDN
# B20: SEQ ID NO 55 (designed binder, not shown: small tags and cut ends; large carriers)
# chain: QIPLCANLVPVPITNATLDRITGKWFRIASAFRNEEYKKSVQEVQTTSFYFTPNKTEDTIFARFYQTRQNQCFYNSSYLNVQRENGTVSLYSGGREAVLHLLFLRDTKTLMLGVYLDDEKNWGLSFYADKPETTKEQLGEFYEALDCLRIPRSDVMYTDWKKDKCEPLEKQHEKERKQEEGES
# B21: SEQ ID NO 54 (designed binder, not shown: small tags and cut ends; large carriers)
# chain: QIPLCANLVPVPITNATLDRITGKWFVIASATRNEEYNKSVQRQQGTVFYYTPNKTEDTIFVRRYQTRQNQCFYNSSYLNVQRENGTVSFYEGGRELVFHLLFLRDTKTLMWGLYLDDEKNWGLEFFADKPETTKEQLGEFYEALDCLRIPRSDVMYTDWKKDKCEPLEKQHEKERKQEEGES
# B22: SEQ ID NO 56 (designed binder, not shown: small tags and cut ends; large carriers)
# chain: QIPLCANLVPVPITNATLDRITGKWFLIASAIRNEEYNKSVQAVQSTAFYWTPNKTEDTIFARYYQTRQNQCFYNSSYLNVQRENGTVSWYAGGREFVSHLLFLRYTKTLMWGGYLDDEKNWGLEFYADKPETTKEQLGEFYEALDCLRIPRSDVMYTDWKKDKCEPLEKQHEKERKQEEGES
# B23: SEQ ID NO 52 (designed binder, not shown: small tags and cut ends; large carriers)
# chain: QIPLCANLVPVPITNATLDRITGKWFIIASASRNEEYNKSVQQAQSTAFYITPNKTEDTIFLRRYQTRQNQCFYNSSYLNVQRENGTVSYYRGGRERVSHLLFLRDTKTLMIGSYLDDEKNWGLVFGADKPETTKEQLGEFYEALDCLRIPRSDVMYTDWKKDKCEPLEKQHEKERKQEEGES
# Target: M44-modified L NTAA target peptides (M44-L-P2-peptide)
# Experiment: Gini coefficient of P1 selectivity from multiplex encoding heatmap
row,P1 score,Binder
1,0.418,B1
2,0.286,B2
3,0.225,B3
4,0.478,B4
5,0.452,B5
6,0.403,B6
7,0.501,B7

# Target: M48-modified F NTAA target peptides (M48-F-P2-peptide)
# Experiment: as above
row,P1 score,Binder
1,0.189,B8
2,0.392,B9

# Target: M44-modified F NTAA target peptides (M44-F-P2-peptide)
# Experiment: as above
row,P1 score,Binder
1,0.241,B10
2,0.173,B11
3,0.387,B12
4,0.433,B13
5,0.408,B14

# Target: M44-modified A NTAA target peptides (M44-A-P2-peptide)
# Experiment: as above
row,P1 score,Binder
1,0.173,B15
2,0.319,B16

# Target: M44-modified I NTAA target peptides (M44-I-P2-peptide)
# Experiment: as above
row,P1 score,Binder
1,0.323,B17
2,0.357,B18
3,0.326,B19

# Target: M44-modified L NTAA target peptides (M44-L-P2-peptide)
# Experiment: Gini coefficient of P2 tolerance from multiplex encoding heatmap
row,Binder,P2 score
1,B1,0.431
2,B2,0.426
3,B3,0.289
4,B4,0.543
5,B5,0.375
6,B6,0.251
7,B7,0.498

# Target: M48-modified F NTAA target peptides (M48-F-P2-peptide)
# Experiment: as above
row,Binder,P2 score
1,B8,0.387
2,B9,0.318

# Target: M44-modified F NTAA target peptides (M44-F-P2-peptide)
# Experiment: as above
row,Binder,P2 score
1,B10,0.485
2,B11,0.379
3,B12,0.456
4,B13,0.378
5,B14,0.359

# Target: M44-modified A NTAA target peptides (M44-A-P2-peptide)
# Experiment: as above
row,Binder,P2 score
1,B15,0.466
2,B16,0.195

# Target: M44-modified I NTAA target peptides (M44-I-P2-peptide)
# Experiment: as above
row,Binder,P2 score
1,B17,0.217
2,B18,0.144
3,B19,0.197

# Target: M90-modified H NTAA target peptide
# Experiment: affinity comparison between P1 residues (method not specified; BLI / encoding assay)
row,fold affinity over an otherwise identical peptide with a different P1,Binder
1,2 fold,B20

# Target: M90-modified A NTAA target peptide
# Experiment: as above
row,fold affinity over an otherwise identical peptide with a different P1,Binder
1,> 2 fold,B21

# Target: M90-modified M NTAA target peptide
# Experiment: as above
row,fold affinity over an otherwise identical peptide with a different P1,Binder
1,> 2 fold,B22

# Target: M90-modified W NTAA target peptide
# Experiment: as above
row,fold affinity over an otherwise identical peptide with a different P1,Binder
1,> 2 fold,B23
